Laboratory results reported in paper PMC8065591, “SPECT Imaging of SST2-Expressing Tumors with ^99mTc-Based Somatostatin Receptor Antagonists: The Role of Tetraamine, HYNIC, and Spacers” (Pharmaceuticals, 2021).
Where a SMILES comes first, the peptide text is derived from it. Bridges are numbered along the chain shown (N, C = ends). [ ]: non-standard residue; d: D form. The star is where a group is joined. dPhe(4-NHCONH2) = NC(=O)Nc1ccc(C[C@@H](N)C(=O)O)cc1; Dihydroorotyl(S) = O=C1C[C@@H](C(=O)*)NC(=O)N1; Phe(4-Cl) = N[C@@H](Cc1ccc(Cl)cc1)C(=O)O; Phe(4-NH2) = Nc1ccc(C[C@H](N)C(=O)O)cc1; HYNIC = NNc1ccc(C(=O)*)cn1; Ahx = NCCCCCC(=O)O

Columns and labels:
[1] = type: physicochemical
Description: In general, all JR11-based radiotracers were more hydrophilic than the corresponding SS01-based radiotracers. […] [^99[…] was excluded from further studies. […] In a pre-lubricated Eppendorf tube, a pre-saturated mixture of 500 μL 1-octanol and 500 μL of phosphate-buffered saline (PBS) at pH 7.4 was added. An amount of 10 μL of 1 μM radiotracer solution was added to this mixture, followed by vortexing of the tube at room temperature for 15 min to reach equilibrium. Centrifugation for 15 min at 3000 rpm was performed for separation of the phases. Aliquots of 100 μL were removed from the octanol and from the PBS phase, and the activity measured in a γ-counter. The partition coefficient was calculated as the average log ratio value of the radioactivity in the organic fraction and PBS fraction.

HEK-SST2 tumors = test system: HEK-SST2 tumors; design: species or system mice; conditions: mouse, in vivo
Description: The Veterinary Office (Department of Health) of the Cantonal Basel-Stadt approved the animal experiments (approval no. 30515) in accordance with the Swiss regulations for animal treatment. Female athymic nude-Foxn1nu/Foxn1+ mice (Envigo, The Netherlands), 4-6 weeks old, were injected subcutaneously with 10^7 HEK-SST2 cells in the right shoulder, freshly suspended in 100 μL sterile phosphate-buffered saline. The tumors were allowed to grow for 2-3 weeks. Mice bearing HEK-SST2 tumors were euthanized 1 or 4 h after intravenous injection of 4-6 MBq (200 pmol) of the ^99mTc-labeled conjugates and imaged supine, head first, using a SPECT/CT system dedicated to imaging small animals (NanoSPECT/CT^TM Bioscan Inc.). Topograms and helical CT scans of the whole mouse were first acquired using the following parameters: X-ray tube current: 177 μA, X-ray tube voltage 45 kVp, 90 s and 180 frames per rotation, pitch 1. The helical SPECT scan was then acquired from head to toe using multi-purpose pinhole collimators (APT1). The energy window width was 20%, centered symmetrically over the energy peak of ^99mTc at 140 keV. Twenty-four projections (200 s per projection) were used, allowing acquisition of at least 50 kilocounts/projection. […]

SST2 = conditions: cited from earlier work

For `C[C@@H](O)[C@@H]1NC(=O)[C@H](CCCCN)NC(=O)[C@@H](Cc2c[nH]c3ccccc23)NC(=O)[C@H](Cc2ccc(O)cc2)NC(=O)[C@H](NC(=O)[C@H](Cc2ccc(Cl)cc2)NC(=O)CCCCCNC(=O)c2ccc(NN)nc2)CSSC[C@@H](C(=O)N[C@H](Cc2ccc(O)cc2)C(N)=O)NC1=O` [[^99mTc]Tc-HYNIC-Ahx-SS01, metal not drawn], the “Log D (pH = 7.4)” value [1] was −1.96 ± 0.06.
With `C[C@@H](O)[C@@H]1NC(=O)[C@H](CCCCN)NC(=O)[C@@H](Cc2c[nH]c3ccccc23)NC(=O)[C@H](Cc2ccc(O)cc2)NC(=O)[C@H](NC(=O)[C@H](Cc2ccc(Cl)cc2)NC(=O)CCNC(=O)c2ccc(NN)nc2)CSSC[C@@H](C(=O)N[C@H](Cc2ccc(O)cc2)C(N)=O)NC1=O` [[^99mTc]Tc-HYNIC-β-Ala-SS01, metal not drawn] the “Log D (pH = 7.4)” value [1] was −1.91 ± 0.19 and the “washout from the tumor on SPECT/CT images (in words)” value (HEK-SST2 tumors) was “very fast washout from the tumor”.
In the case of `C[C@@H](O)[C@@H]1NC(=O)[C@H](CCCCN)NC(=O)[C@@H](Cc2c[nH]c3ccccc23)NC(=O)[C@H](Cc2ccc(O)cc2)NC(=O)[C@H](NC(=O)[C@H](Cc2ccc(Cl)cc2)NC(=O)c2ccc(NN)nc2)CSSC[C@@H](C(=O)N[C@H](Cc2ccc(O)cc2)C(N)=O)NC1=O` [[^99mTc]Tc-HYNIC-SS01, metal not drawn], the “Log D (pH = 7.4)” value [1] is reported as −2.21 ± 0.07.
For `C[C@@H](O)[C@@H]1NC(=O)[C@H](CCCCN)NC(=O)[C@@H](Cc2c[nH]c3ccccc23)NC(=O)[C@H](Cc2ccc(O)cc2)NC(=O)[C@H](NC(=O)[C@H](Cc2ccc(Cl)cc2)NC(=O)CCOCCOCCOCCOCCNC(=O)c2ccc(NN)nc2)CSSC[C@@H](C(=O)N[C@H](Cc2ccc(O)cc2)C(N)=O)NC1=O` [[^99mTc]Tc-HYNIC-PEG4-SS01, metal not drawn], the “Log D (pH = 7.4)” value [1] was −2.03 ± 0.13.
In the case of `C[C@@H](O)[C@@H]1NC(=O)[C@H](CCCCN)NC(=O)[C@@H](Cc2ccc(NC(N)=O)cc2)NC(=O)[C@H](Cc2ccc(NC(=O)[C@@H]3CC(=O)NC(=O)N3)cc2)NC(=O)[C@H](NC(=O)[C@H](Cc2ccc(Cl)cc2)NC(=O)CCCCCNC(=O)c2ccc(NN)nc2)CSSC[C@@H](C(=O)N[C@H](Cc2ccc(O)cc2)C(N)=O)NC1=O` [[^99mTc]Tc-HYNIC-Ahx-JR11, metal not drawn] ({HYNIC-Ahx}-[Phe(4-Cl)][dC][Phe(4-NH2)](Dihydroorotyl(S))[dPhe(4-NHCONH2)]KTC[dY]-NH2; disulfide 2-7), the “Log D (pH = 7.4)” value [1] is reported as −3.15 ± 0.06.
For “Cpa-c(DCys-Aph(Hor)-DAph(Cbm)-Lys-Thr-Cys)-DTyr-NH2 [JR11]”, the “affinity for SST2 (in words)” value (SST2) is given as “high affinity”.
In the case of `C[C@@H](O)[C@@H]1NC(=O)[C@H](CCCCN)NC(=O)[C@@H](Cc2ccc(NC(N)=O)cc2)NC(=O)[C@H](Cc2ccc(NC(=O)[C@@H]3CC(=O)NC(=O)N3)cc2)NC(=O)[C@H](NC(=O)[C@H](Cc2ccc(Cl)cc2)NC(=O)c2ccc(NN)nc2)CSSC[C@@H](C(=O)N[C@H](Cc2ccc(O)cc2)C(N)=O)NC1=O` [[^99mTc]Tc-HYNIC-JR11, metal not drawn] ({HYNIC}-[Phe(4-Cl)][dC][Phe(4-NH2)](Dihydroorotyl(S))[dPhe(4-NHCONH2)]KTC[dY]-NH2; disulfide 2-7), the “Log D (pH = 7.4)” value [1] is reported as −2.88 ± 0.11.
For `C[C@@H](O)[C@@H]1NC(=O)[C@H](CCCCN)NC(=O)[C@@H](Cc2c[nH]c3ccccc23)NC(=O)[C@H](Cc2ccc(O)cc2)NC(=O)[C@@H](NC(=O)[C@@H](Cc2ccccc2)NC(=O)c2ccc(NN)nc2)CSSC[C@@H](C(=O)N[C@H](CO)[C@@H](C)O)NC1=O` [[^99mTc]Tc-HYNIC-TOC, metal not drawn, reference compound], the logD ([1]; pH 7.4) was -2.77 ± 0.07.
